Reference: the supplement of paper PMC9170038

Test system: MS2 coat protein
Assay: apparent KD of MS2 coat protein; designed switch direction (-1 OFF switch, 1 ON switch): 1; higher = weaker reporter binding
How it was run: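 Three titration conditions were used: no input, 200 uM small-molecule ligand, and an oligonucleotide input. In each, SNAP-549-labelled MS2 coat protein was raised from 0.7 or 1.5 nM, doubling, to 3 µM over designed RNA switches transcribed on Illumina chips by stalled E. coli RNA polymerase. Curve fits of normalised cluster fluorescence gave values whose per-design median over clusters is the apparent KD.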

[1] = Eterna round: R95, input ligand: FMN 200 uM
[2] = Eterna round: R95, input ligand: microRNA oligo, concentration not stated
[3] = Eterna round: R95, input ligand: none
[4] = input ligand: microRNA oligo, concentration not stated

Row | Sequence | apparent KD of MS2 coat protein [1] | apparent KD of MS2 coat protein [2] | apparent KD of MS2 coat protein [3] | apparent KD of MS2 coat protein (input ligand: FMN 200 uM) | apparent KD of MS2 coat protein [4] | apparent KD of MS2 coat protein (input ligand: none)
1 | GUUAAACAUGAGGAUCACCCAUGUAAUAUAAUGGGAGGAUAUCUGAAUUAAUUAAAUUAAGGAGAAGGCCUAAUGG [Mat - Same State 1 - Mod of Eli - D51] (puzzle: Same State 1) | 83.3 nM | 481 nM | 608 nM | – | – | –
2 | CGGAAAAUCGUAGGAUAUCUAGGAUAUGAACGAGGAUCACCCGAGCAGCAUCAGCGCAUCAGAGGAGAGAAGGACGAUGAUGCG [pwkr ssNG2 2F5 2FMN.5] (Eterna round: R96, puzzle: Same State NG 2) | – | – | – | 1930 nM | 1100 nM | 1510 nM
3 | GUACUCAUGUAAGGAUAUGCAGCCGUUUCGGCUGCAGAAGGUACUAUAAUACAUGAGGAUCACCCAUGUCUCUAUAAUUUGGUG [salish99_SSNG1_r04_902] (Eterna round: R96, puzzle: Same State NG 1) | – | – | – | 177 nM | 62.4 nM | 132 nM
4 | AGGCUCAGACGAGGAUAUAUGUAAUAACAUGAGGAUCACCCAUGUGUCGAGCUUCGGCUCGACACAUAGAAGGCGUCUGAGCCA [SSNG2/2-A1] (Eterna round: R96, puzzle: Same State NG 2) | – | – | – | 8.75 nM | 17.4 nM | 25.7 nM
5 | AUUGUUAAUGCAGGAUAUGAUUAACAUGAGGAUCACCCAUGUGGUGUUGUGAGUAAGGAGAGUGAUCAGAAGGGCAUUUUUUUU [JMF's solution 31] (Eterna round: R96, puzzle: Same State NG 2) | – | – | – | 826 nM | 810 nM | 616 nM
6 | UUCACCUUAUUUUACAUGAGGAUCACCCAUGUUUUUUUUACGUAGGAUAUCGAUGCUUGUUUAUUCGAGAAGGACGAUGUAAGU [JR_SSND3_Sub053] (Eterna round: R96, puzzle: Same State NG 3) | – | – | – | – | 28 nM | –
7 | ACAUGAGAGAUAGGAUAUGUUGUACCUACAUGUGACAUGAGGAUCACCCAUGUGGUAAGUAUGAGACAGAAGGAUCAGAUAUGU [Equivalence 31 - Jieux - Same State NG 2] (Eterna round: R96, puzzle: Same State NG 2) | – | – | – | 20.8 nM | 41.4 nM | 74 nM
8 | ACAUGAGGAUCACCCAUGUAUAGAUUUGAAUCUUAAGUUACGUAGGAUAUCGUGUUUAGUAUCAUCGAGAAGGACGAUCUGAUA [JR_SSNG3_Sub067] (Eterna round: R96, puzzle: Same State NG 3) | – | – | – | 19.7 nM | 17.2 nM | 26 nM
9 | UAUUUAAUCGUAGGAUAUAGAGUGAAAUUUGGACUAGAAGGACGUAACAUGAGGAUCACCCAUGUGGUAAGUGGGACACAGUGU [JR_SSNG1_Sub038] (Eterna round: R96, puzzle: Same State NG 1) | – | – | – | 150 nM | 66.8 nM | 90.5 nM
10 | GGUCGGACAAAACAUGAGGAUCACCCAUGUCCGGAAACGGCAUAGGAUAUCUGUCCGAAAAGGUCAGAGAAGGGUGAACCGACC [Fiskers NG3ss - 70] (Eterna round: R96, puzzle: Same State NG 3) | – | – | – | 91.2 nM | 26.1 nM | 140 nM
11 | GCUAGAAUAAAUGCUAACAUGAGGAUCACCCAUGUAUGUUGGCAGGAUAUCGUUUGCAAAGCAAACGAGAAGGGCCAUACUAGC [Mat - Same State NG 3 - JL Mod - D26] (Eterna round: R96, puzzle: Same State NG 3) | – | – | – | 23.1 nM | 26.3 nM | 38.1 nM
12 | CGUCCAGCCUGAGCUGGACAAAAGCAUGUACAUGAGGAUCACCCAUGUUCAUGUACAAGCUUUUUGCUCGUCUUACU [salish99_208a_r3_092x] (puzzle: Sensor for hsa-mir-208a) | 590 nM | 15.7 nM | 793 nM | – | – | –
13 | AUUUAACAAGCUUUUUGCUCGUCUUAUAAACAUGAGGAUCACCCAUGUAAUAGCGUGAGAGUAAAUAAUUUAAUAAU [JMF 98] (puzzle: Sensor for hsa-mir-208a) | 12.9 nM | 53.2 nM | – | – | – | –
14 | AUAAUACAUGAGGAUCACCCAUGUAAUUUAACUUGUAAGAUCAAGGAUAUCAGCUCGAAUAGAGCUGAGAAGGUGAUCACAUGU [SSNG3/20-A1] (Eterna round: R96, puzzle: Same State NG 3) | – | – | – | – | 70.7 nM | –
15 | ACACAGCUGGGUGAGGAUAUCGGUGGUAAAACAUGAGGAUCACCCAUGUCCGAAGCUCGGACUUCCGAGAAGGCGCCCGGCUGCA [Areronanma] (puzzle: Same State 2) | 12.4 nM | 86.4 nM | 151 nM | – | – | –
16 | AGUCCAGCCUGAGCUGGACAAAAGCAUGUACAUGAGGAUCACCCAUGUUCAUGUACAAGCUUUUUGCUCGAAUUAAA [Mat - hsa-mir-208a - Mod of JL - 53] (puzzle: Sensor for hsa-mir-208a) | 558 nM | 15.4 nM | 822 nM | – | – | –
17 | AGGCCAUCGGGAGGAUAUGGCACCUUAUUGGUGCCAGAAGGUCCAACAUGAGGAUCACCCAUGUGGGAGAGUUCUAAUGAACAU [Fiskers NG1(SS) - 3] (Eterna round: R96, puzzle: Same State NG 1) | – | – | – | 28.4 nM | 25.3 nM | 32.2 nM
18 | AGCUAGUACCGAGGAUAUACGUACAUGAGGAUCACCCAUGUAUACAUGGUUUAAUGAGACUACAUGUAGAAGGCGGUACUAGCA [JL SSNG2 1.25] (Eterna round: R96, puzzle: Same State NG 2) | – | – | – | 175 nM | 532 nM | 636 nM
19 | CUGUAUCGCGGAGGAUAUGGGCUGAGACCAGGGCAACCCUGGUCAACAUGAGGAUCACCCAUGUCCCAGAAGGCCGCGAUGCUA [Diaraenve] (Eterna round: R96, puzzle: Same State NG 2) | – | – | – | 19.7 nM | 73.6 nM | 113 nM
20 | AGUCCAGCCUGAGCUGGACAAAAGCAUGUACAUGAGGAUCACCCAUGUUCAUGUACAAGCUUUUUGCUCGUCUUAAG [salish99_208a_r3_028] (puzzle: Sensor for hsa-mir-208a) | 606 nM | 16 nM | 602 nM | – | – | –
21 | AGUCCAGCCUGAGCUGGACAAAAGCAUGUACAUGAGGAUCACCCAUGUCAUGUGCAAGCUUUUUGCUCGUCUUAAUA [Zipper 49 - 5] (puzzle: Sensor for hsa-mir-208a) | 64.5 nM | 11.9 nM | 70.3 nM | – | – | –
22 | GCCGCACAUGAGGAUCACCCAUGUAAUUACAUGGGAGGAUAUCAGUGCUCGAAAGAGCACUGAGAAGGCCUGAGGC [SS1 - Omei A v1] (Eterna round: R96, puzzle: Same State 1) | – | – | – | 887 nM | 42.4 nM | 74.8 nM
23 | GGAAUAUUUACAGGAUAUGAGUUGUAAAGUCGAUCAGAAGGGUAGAUGUCUUACACGGUGUGUUACAUGAGGAUCACCCAUGUU [SameState NG1 #19] (Eterna round: R96, puzzle: Same State NG 1) | – | – | – | 169 nM | 160 nM | 218 nM
24 | AACCAACAAAUAAAACAAGCGUGCUCGUCACAUGAGGAUCACCCAUGUUUAAGCGCUGUUCCUACAUCCGCAGCGCC [Inbitiar] (puzzle: Sensor for hsa-mir-208a) | 178 nM | 32.5 nM | 232 nM | – | – | –
25 | GAGGAACAGGCCAACAUGAGGAUCACCCAUGUCCUCGCAUUUCAGGAUAUCUGGAAGAAGAAAAAAGAGAAGGGAAGGUGAAGC [AK SSNG3-V2-34.3] (Eterna round: R96, puzzle: Same State NG 3) | – | – | – | 198 nM | 140 nM | 165 nM
26 | AGUCCAGCCUGAGCUGGACAAAAGCAUGUACAUGAGGAUCACCCAUGUCAUGUACAAGCUUUUUGCAAAUCUUAAUA [Mat - hsa-mir-208a - Mod of JL - D34] (Eterna round: R96, puzzle: Sensor for hsa-mir-208a) | – | – | – | 999 nM | 14.6 nM | 1180 nM
27 | GGAUCAUGACGAGGAUAUGGUACAUGAGGAUCACCCAUGUAUGUACCACGACGGAAACGUCGAAUCCAGAAGGCGUCAUGAUCG [Mat - Same State NG 2 - JL mod - D39] (Eterna round: R96, puzzle: Same State NG 2) | – | – | – | 25.3 nM | 70.1 nM | 120 nM
